# Changes are numbered by the printed parent chain. Numbers in names are those of the source.
# B1: oxalate decarboxylase (OxDC) of Bacillus subtilis, wild type, His6-tagged (enzyme)
# chain: MKKQNDIPQPIRGDKGATVKIPRNIERDRQNPDMLVPPETDHGTVSNMKFSFSDTHNRLEKGGYAREVTVRELPISENLASVNMRLKPGAIRELHWHKEAEWAYMIYGSARVTIVDEKGRSFIDDVGEGDLWYFPSGLPHSIQALEEGAEFLLVFDDGSFSENSTFQLTDWLAHTPKEVIAANFGVTKEEISNLPGKEKYIFENQLPGSLKDDIVEGPNGEVPYPFTYRLLEQEPIESEGGKVYIADSTNFKVSKTIASALVTVEPGAMRELHWHPNTHEWQYYISGKARMTVFASDGHARTFNYQAGDVGYVPFAMGHYVENIGDEPLVFLEIFKDDHYADVSLNQWLAMLPETFVQAHLDLGKDFTDVLSKEKHPVVKKKCSK
# notes: oxalate decarboxylase (OxDC), Bacillus subtilis, YvrK gene; Vector printed as PET32A with the YvrK gene; also called WT OxDC; WT; source: E. coli (overexpressed), purified (nickel-NTA, HiTrap Q anion exchange, Superdex 200 gel filtration)
# B2: oxalate decarboxylase (OxDC) of Bacillus subtilis, W274F mutant, His6-tagged (enzyme)
# chain: B1 chain with W274F
# notes: oxalate decarboxylase (OxDC), Bacillus subtilis, YvrK gene, with W274F; 385 residues per subunit; Said to assemble like the wild type on native PAGE; no crystal structure; source: E. coli (overexpressed), purified (nickel-NTA, HiTrap Q anion exchange, Superdex 200 gel filtration)
# B3: oxalate decarboxylase (OxDC) of Bacillus subtilis, W96Y/W274Y double mutant, His6-tagged (enzyme)
# chain: B1 chain with W96Y, W274Y
# notes: oxalate decarboxylase (OxDC), Bacillus subtilis, YvrK gene, with W96Y and W274Y; 385 residues per subunit; Said to assemble like the wild type on native PAGE; no crystal structure; source: E. coli (overexpressed), purified (nickel-NTA, HiTrap Q anion exchange, Superdex 200 gel filtration)
# B4: oxalate decarboxylase (OxDC) (Bacillus subtilis subsp. subtilis str. 168; W274Y) (protein)
# chain: B1 chain with W274Y
# B5: oxalate decarboxylase (OxDC) of Bacillus subtilis, W96F/W274F double mutant, His6-tagged (enzyme)
# chain: B1 chain with W96F, W274F
# notes: oxalate decarboxylase (OxDC), Bacillus subtilis, YvrK gene, with W96F and W274F; 385 residues per subunit; Said to assemble like the wild type on native PAGE; no crystal structure; source: E. coli (overexpressed), purified (nickel-NTA, HiTrap Q anion exchange, Superdex 200 gel filtration)
# B6: oxalate decarboxylase (OxDC) (Bacillus subtilis subsp. subtilis str. 168; W274Y/W96Y) (protein)
# chain: B1 chain with W96Y, W274Y
# B7: oxalate decarboxylase (OxDC) of Bacillus subtilis, W274Y mutant, His6-tagged (enzyme)
# chain: B1 chain with W274Y
# notes: oxalate decarboxylase (OxDC), Bacillus subtilis, YvrK gene, with W274Y; 385 residues per subunit; Said to assemble like the wild type on native PAGE; no crystal structure; source: E. coli (overexpressed), purified (nickel-NTA, HiTrap Q anion exchange, Superdex 200 gel filtration)
# B8: oxalate decarboxylase (OxDC) (Bacillus subtilis subsp. subtilis str. 168; W96Y) (protein)
# chain: B1 chain with W96Y
# B9: oxalate decarboxylase (OxDC) of Bacillus subtilis, W96F mutant, His6-tagged (enzyme)
# chain: B1 chain with W96F
# notes: oxalate decarboxylase (OxDC), Bacillus subtilis, YvrK gene, with W96F; 385 residues per subunit; Quaternary assembly in the crystal agrees with that of the hexameric wild type (5VG3); source: E. coli (overexpressed), purified (nickel-NTA, HiTrap Q anion exchange, Superdex 200 gel filtration)
# B10: oxalate decarboxylase (OxDC) of Bacillus subtilis, W96Y mutant, His6-tagged (enzyme)
# chain: B1 chain with W96Y
# notes: oxalate decarboxylase (OxDC), Bacillus subtilis, YvrK gene, with W96Y; 385 residues per subunit; Quaternary assembly in the crystal agrees with that of the hexameric wild type (5VG3); source: E. coli (overexpressed), purified (nickel-NTA, HiTrap Q anion exchange, Superdex 200 gel filtration)
# Columns and labels:
# [1] = substrate: O=C(O)C(=O)O; assay: purified protein; conditions: pH 4.2, 25 °C
# [2] = molecular target: the molecule itself; assay: native gel or EMSA; native PAGE of the mutant proteins after purification, compared with WT (Fig. S3); self-assembly of the subunits
# [3] = 50 mM poly buffer, 500 mM NaCl, Triton X-100, o-phenylenediamine, 1.93 Mn per subunit
# [4] = same buffer, 0.58 Mn per subunit
# [5] = same buffer, 1.89 Mn per subunit
# [6] = same buffer, 0.33 Mn per subunit
# [7] = same buffer, 1.34 Mn per subunit
# [8] = same buffer, 0.55 Mn per subunit
protein,measurement,setting,value
B1,Km,[1]; [3],33.3 ± 0.4 mM
same,kcat,[1]; [3],89.2 ± 1.4 s⁻¹
same,binding result,[2],binds
B2,Km,[1]; [4],6.7 ± 0.3 mM
same,kcat,[1]; [4],1.10 ± 0.03 s⁻¹
same,binding result,[2],binds
B3,binding result,[2],binds
B4,Km,[1]; [5],10.3 ± 3.1 mM
same,kcat,[1]; [5],23.9 ± 2.8 s⁻¹
B5,binding result,[2],binds
B6,Km,[1]; [6],5.6 ± 0.5 mM
same,kcat,[1]; [6],0.20 ± 0.01 s⁻¹
B7,binding result,[2],binds
B8,Km,[1]; [7],3.7 ± 0.9 mM
same,kcat,[1]; [7],5.3 ± 0.9 s⁻¹
B9,Km,[1]; [8],16.0 ± 1.5 mM
same,kcat,[1]; [8],1.00 ± 0.03 s⁻¹
same,binding result,[2],binds
B10,binding result,[2],binds

# — PMC8254039, “Oxalate decarboxylase uses electron hole hopping for catalysis” (The Journal of Biological Chemistry, 2021)
